Data: PMC7195491, “DIP/Dpr interactions and the evolutionary design of specificity in protein families” (Nature Communications, 2020)

Tests used:
Details in all cases: both partners purified
DIP-α A11T = biological target: T1, DIP-α A11T (Drosophila melanogaster); assay: SPR; Biacore T100, CM4 chip; DIPs and DIP mutants immobilised by amine coupling (760-980 RU), Dprs and Dpr mutants as analytes (three-fold dilution series, up to 81 μM, in some cases up to 27 or 9 μM); 25 °C; 10 mM Tris-HCl pH 7.2, 150 mM NaCl, 1 mM EDTA, 1 mg/mL BSA, 0.01% Tween-20; equilibrium fit, 1:1 model; for KDs > 300 μM a lower limit is listed
T1 construct: DIP-α, Drosophila melanogaster, extracellular region; the results' sentence speaks of 'Dpr10 positions 10 and 11'; source: HEK293F, transiently transfected, purified from conditioned media (Ni IMAC, SEC)

DIP-α = biological target: T2, DIP-α (Drosophila melanogaster); assay: as above
T2 construct: DIP-α, Drosophila melanogaster, extracellular region; The PDB entries are cited structures and may hold shorter constructs; also called blue subgroup DIP; source: HEK293F, transiently transfected, purified from conditioned media (Ni IMAC, SEC)

DIP-α K10Q = biological target: T3, DIP-α K10Q (Drosophila melanogaster); assay: as above
T3 construct: DIP-α, Drosophila melanogaster, extracellular region; source: HEK293F, transiently transfected, purified from conditioned media (Ni IMAC, SEC)

[1] = biological target: T4, DIP-β (isoformG), extracellular region (Drosophila melanogaster); assay: SPR; Biacore T100, CM4 chip; DIPs and DIP mutants immobilised by amine coupling, Dprs as analytes; 25 °C; 10 mM Tris-HCl pH 7.2, 150 mM NaCl, 1 mM EDTA, 1 mg/mL BSA, 0.01% Tween-20; duplicate responses fit globally to a 1:1 model; Rmax fixed for KDs > 100 μM, lower limit listed for KDs > 300 μM
T4 construct: DIP-β, Drosophila melanogaster, isoform G as printed, extracellular region; source: HEK293F cells, transiently transfected, purified from conditioned media (Ni-IMAC, size-exclusion chromatography)

fold increase of KD over wild type (DIP-α A11T) | Kd (DIP-α) | fold increase of KD over wild type (DIP-α K10Q) | Kd [1] | Binder
~10 fold | 1.5 ± 0.1 µM | ~10 fold |  | Dpr10 (domain or fragment) YQRQSVSNNNHNNAEAKPTHAPPSHYPHGHKWNEPYFDLTMPRNITSLVGKSAYLGCRVKHLGNKTVAWIRHRDLHILTVGTYTYTTDQRFQTSYHRDIDEWTLQIKWAQQRDAGVYECQISTQPVRSYSVNLNIVDLIDAETSDIMQQYYNDDAFYIAENRVYQSSNDEFAGMFGPIQTVAVPTATILGGPDLYVDKGSTINLTCIIKFSPEPPTHIFWYHQDKVLSEETSGGRLKFKTIKSEETKSILLIYDADLLHSGKYSCYPSNTEIASIR
 |  |  | > 500 µM | Dpr10 V31K Q29E L10G {V144K Q142E L93G}, extracellular region (domain or fragment, Limits not printed (ref. 11). Start follows PDB 6NRQ entity 1 (W3 = UniProt 50); end is the end of Ig2 in the entry's features.) WNEPYFDLTMPRNITSLVGKSAYLGCRVKHLGNKTVAWIRHRDGHILTVGTYTYTTDQRFQTSYHRDIDEWTLQIKWAQQRDAGVYECQISTEPKRSYSVNLNIVVPTATILGGPDLYVDKGSTINLTCIIKFSPEPPTHIFWYHQDKVLSEETSGGRLKFKTIKSEETKSILLIYDADLLHSGKYSCYPSNTEIASIR
 | > 500 µM |  |  | Dpr10 V31K Q29E L10G (domain or fragment, Same molecule as Dm6. Limits not printed (ref. 11). Start follows PDB 6NRQ; end is the end of Ig2 in the entry's features.) WNEPYFDLTMPRNITSLVGKSAYLGCRVKHLGNKTVAWIRHRDGHILTVGTYTYTTDQRFQTSYHRDIDEWTLQIKWAQQRDAGVYECQISTEPKRSYSVNLNIVVPTATILGGPDLYVDKGSTINLTCIIKFSPEPPTHIFWYHQDKVLSEETSGGRLKFKTIKSEETKSILLIYDADLLHSGKYSCYPSNTEIASIR
